{
  "source": "paper PMC10516938",
  "about": "“Conformational dynamics of cohesin/Scc2 loading complex are regulated by Smc3 acetylation and ATP binding” (Nature Communications, 2023)",
  "binders": {"B1": {"name": "Scc2 D369C (natural protein, S. cerevisiae, UniProt Q04002 1-1493, looked up)", "chain": "MSYPGKDKNIPGRIIEALEDLPLSYLVPKDGLAALVNAPMRVSLPFDKTIFTSADDGRDVNINVLGTANSTTSSIKNEAEKERLVFKRPSNFTSSANSVDYVPTNFLEGLSPLAQSVLSTHKGLNDSINIEKKSEIVSRPEAKHKLESVTSNAGNLSFNDNSSNKKTKTSTGVTMTQANLAEQYLNDLKNILDIVGFDQNSAEIGNIEYWLQLPNKKFVLTTNCLTKLQMTIKNITDNPQLSNSIEITWLLRLLDVMVCNIKFSKSSLKMGLDDSMLRYIALLSTIVLFNIFLLGKNDSNLHRESYIMEPVNFLSDLIESLKILTIEYGSLKIEFDTFQEALELLPKYIRNGPFLDDNVTAKLVYIFSCLLMNNDIEATTNIQFQSFWDNVKRISSDILVSLFGSFDQQRGFIIEELLSHIEKLPTKRIQKKLRKVGNQNIYITDFTFTLMSMLENINCYSFCNQMKDIAPENIDLLKNEYKKQEEFLFNIVEHINDTILERFFKNPSALRYVIDNFVQDLLLLISSPQWPVTEKILSSLLKRLLSVYSPSMQVSANIETICLQLIGNIGSTIFDIKCSTRDHEDNNLIKMINYPETLPHFFKSFEECIAYNETIKCRRSATRFLWNLRLGTILILEEYTKDAKEQIITVDNELKKILEQIKDGGLGPELENREADFSTIKLDYFSILHAFELLNLYDPYLKLILSLLAKDKIKLRSTAIKCLSMLASKDKVILSNPMVKETIHRRLNDSSASVKDAILDLVSINSSYFEFYQQINNNYNDDSIMVRKHVLRINEKMYDETNDIVTKVYVIARILMKIEDEEDNIIDMARLILLNRWILKVHEVLDQPEKLKEISSSVLLVMSRVAIMNEKCSQLFDLFLNFYLLNKEAHSKEAYDKITHVLTILTDFLVQKIVELNSDDTNEKNSIVDKQNFLNLLAKFADSTVSFLTKDHITALYPYMVSDEKSDFHYYILQVFRCTFEKLANFKQKFLYDLETTLLSRLPKMNVREIDEAMPLIWSVATHRHDTARVAKACSSCLSHLHPYINKANNEEAAIVVDGKLQRLIYLSTGFARFCFPKPSNDKIAFLQEGETLYEHITKCLLVLSKDKITHVIRRVAVKNLTKLCGNHPKLFNSRHVLHLLDKEFQSDQLDIKLVILESLYDLFLLEERKSVRNTGVNSTLSSNSILKKKLLKTNRVEFANDGVCSALATRFLDNILQLCLLRDLKNSLVAIRLLKLILKFGYTNPSHSIPTVIALFASTSQYIRHVAYELLEDLFEKYETLVFSSLSRGVTKAIHYSIHTDEKYYYKHDHFLSLLEKLCGTGKKNGPKFFKVLKRIMQSYLDDITDLTSTNSSVQKSIFVLCTNISNITFVSQYDLVSLLKTIDLTTDRLKEVIMDEIGDNVSSLSVSEEKLSGIILIQLSLQDLGTYLLHLYGLRDDVLLLDIVEESELKNKQLPAKKPDISKFSAQLENIEQYSSNGKLLTYFRKHVKDT", "notes": "Scc2, S. cerevisiae; source: S. cerevisiae W303, in vivo, whole-cell extract"}},
  "target": "T1, Smc3^QQ W483R R1008I K1004C (S. cerevisiae, UniProt P47037 1-1230, K112Q | K113Q | W483R | K1004C | R1008I)",
  "T1 construct": "Smc3, S. cerevisiae; also called smc3-QQ K1004C with R1008I and W483R; source: S. cerevisiae W303, late G1 arrested cells, whole-cell extract",
  "T1 sequence (looked up)": "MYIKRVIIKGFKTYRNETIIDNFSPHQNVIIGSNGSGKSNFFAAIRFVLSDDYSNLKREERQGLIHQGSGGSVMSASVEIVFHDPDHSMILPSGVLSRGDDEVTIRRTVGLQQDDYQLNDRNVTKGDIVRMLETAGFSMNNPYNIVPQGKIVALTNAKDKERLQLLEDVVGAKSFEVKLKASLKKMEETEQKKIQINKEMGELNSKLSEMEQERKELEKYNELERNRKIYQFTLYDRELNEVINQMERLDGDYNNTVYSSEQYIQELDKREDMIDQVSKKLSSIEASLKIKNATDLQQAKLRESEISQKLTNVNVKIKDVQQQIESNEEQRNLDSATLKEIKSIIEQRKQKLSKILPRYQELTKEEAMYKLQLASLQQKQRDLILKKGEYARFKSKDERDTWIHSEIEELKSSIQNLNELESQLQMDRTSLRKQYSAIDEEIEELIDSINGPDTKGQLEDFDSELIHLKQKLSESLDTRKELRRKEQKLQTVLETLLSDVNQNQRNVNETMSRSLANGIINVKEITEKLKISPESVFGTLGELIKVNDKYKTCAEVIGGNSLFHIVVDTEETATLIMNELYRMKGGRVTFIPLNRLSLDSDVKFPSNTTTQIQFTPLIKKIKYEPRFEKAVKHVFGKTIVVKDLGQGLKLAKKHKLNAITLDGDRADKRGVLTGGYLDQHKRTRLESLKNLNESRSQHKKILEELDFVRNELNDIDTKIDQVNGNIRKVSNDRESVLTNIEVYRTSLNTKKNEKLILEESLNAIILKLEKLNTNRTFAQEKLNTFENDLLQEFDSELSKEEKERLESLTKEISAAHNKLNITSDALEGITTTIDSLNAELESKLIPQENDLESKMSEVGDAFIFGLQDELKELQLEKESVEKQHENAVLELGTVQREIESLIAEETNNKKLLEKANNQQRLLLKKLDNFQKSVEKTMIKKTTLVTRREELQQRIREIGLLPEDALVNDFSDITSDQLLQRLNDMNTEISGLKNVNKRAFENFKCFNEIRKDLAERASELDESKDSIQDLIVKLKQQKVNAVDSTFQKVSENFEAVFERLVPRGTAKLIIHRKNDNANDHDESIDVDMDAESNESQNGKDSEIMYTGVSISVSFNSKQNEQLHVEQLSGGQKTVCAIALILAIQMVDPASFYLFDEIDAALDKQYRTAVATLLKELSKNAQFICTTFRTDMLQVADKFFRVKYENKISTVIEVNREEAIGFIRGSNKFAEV",
  "assay": "cross-linking; in vivo BMOE cross-link of cysteine pairs in yeast cells arrested in late G1 by non-degradable Sic1(9m); Scc1-PK immunoprecipitated, western blot, band intensities quantified",
  "settings": "partners not purified",
  "data": [
    {"binder": "B1", "values": [
      {"measurement": "crosslink relative to wild type", "result": "~70", "unit": "%"}
    ]}
  ]
}
